Reference: patent publication US20160041176A1 (NATIONAL UNIVERSITY CORPORATION NAGOYA UNIVERSITY, published 2016)
Substitutions are numbered along the chain they refer to. Each block holds one molecule with its values, some of them ahead of it.

Tests used:
[1] = system: T1, coiled-coil domain of Girdin tagged with V5
T1 sequence: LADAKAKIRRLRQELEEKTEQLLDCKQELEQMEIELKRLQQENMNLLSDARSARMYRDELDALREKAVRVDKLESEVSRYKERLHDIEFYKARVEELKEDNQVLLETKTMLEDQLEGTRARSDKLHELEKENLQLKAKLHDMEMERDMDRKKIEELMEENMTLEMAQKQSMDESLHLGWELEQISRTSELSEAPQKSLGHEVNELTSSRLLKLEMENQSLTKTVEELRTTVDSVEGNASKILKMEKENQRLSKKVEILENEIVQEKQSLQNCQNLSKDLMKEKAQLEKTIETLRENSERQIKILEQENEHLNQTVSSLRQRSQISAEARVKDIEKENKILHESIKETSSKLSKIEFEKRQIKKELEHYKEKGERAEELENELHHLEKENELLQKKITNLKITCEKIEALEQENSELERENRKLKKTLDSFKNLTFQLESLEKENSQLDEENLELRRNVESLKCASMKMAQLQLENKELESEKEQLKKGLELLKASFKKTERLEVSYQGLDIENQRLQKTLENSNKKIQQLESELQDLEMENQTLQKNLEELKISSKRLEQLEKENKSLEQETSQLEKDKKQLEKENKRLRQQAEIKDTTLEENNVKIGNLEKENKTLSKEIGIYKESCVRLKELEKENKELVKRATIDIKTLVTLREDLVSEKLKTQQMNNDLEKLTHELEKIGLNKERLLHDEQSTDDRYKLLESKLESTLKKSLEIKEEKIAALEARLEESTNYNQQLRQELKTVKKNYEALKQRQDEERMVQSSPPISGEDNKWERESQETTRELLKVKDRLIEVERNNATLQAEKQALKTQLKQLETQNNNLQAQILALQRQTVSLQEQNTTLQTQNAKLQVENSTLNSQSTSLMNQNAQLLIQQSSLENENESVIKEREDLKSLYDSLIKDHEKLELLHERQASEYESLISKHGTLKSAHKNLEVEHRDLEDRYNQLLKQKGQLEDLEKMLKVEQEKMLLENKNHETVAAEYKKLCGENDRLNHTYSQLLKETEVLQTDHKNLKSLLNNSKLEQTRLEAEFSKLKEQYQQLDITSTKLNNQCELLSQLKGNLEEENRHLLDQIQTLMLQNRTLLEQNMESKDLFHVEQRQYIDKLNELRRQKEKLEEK

[2] = system: T2, GST-CT (GST-fused CT domain of Girdin)
T2 sequence: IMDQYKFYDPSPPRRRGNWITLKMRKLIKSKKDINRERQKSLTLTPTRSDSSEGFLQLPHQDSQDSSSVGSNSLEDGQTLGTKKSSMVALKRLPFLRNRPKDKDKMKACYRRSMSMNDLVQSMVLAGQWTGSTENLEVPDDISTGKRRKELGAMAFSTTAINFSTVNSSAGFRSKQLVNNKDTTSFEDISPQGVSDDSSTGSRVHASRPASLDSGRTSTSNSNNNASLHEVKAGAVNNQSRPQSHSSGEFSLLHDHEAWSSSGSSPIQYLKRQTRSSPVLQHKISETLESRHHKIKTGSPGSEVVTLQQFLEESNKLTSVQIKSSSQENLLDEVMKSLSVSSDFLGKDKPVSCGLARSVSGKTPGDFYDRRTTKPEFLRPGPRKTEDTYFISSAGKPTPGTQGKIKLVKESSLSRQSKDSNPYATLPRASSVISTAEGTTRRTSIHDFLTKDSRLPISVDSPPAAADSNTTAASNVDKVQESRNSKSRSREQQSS

[3] = system: T3, Girdin CT-V5 SA mutant (serine 1416 replaced with alanine)
T3 sequence: T2 sequence with S41A

[4] = system: T4, Girdin CT-V5 wild type (WT)
T4 sequence: T2 sequence

[5] = system: T5, V5 epitope-tagged NT domain of Girdin (NT-V5)
T5 sequence: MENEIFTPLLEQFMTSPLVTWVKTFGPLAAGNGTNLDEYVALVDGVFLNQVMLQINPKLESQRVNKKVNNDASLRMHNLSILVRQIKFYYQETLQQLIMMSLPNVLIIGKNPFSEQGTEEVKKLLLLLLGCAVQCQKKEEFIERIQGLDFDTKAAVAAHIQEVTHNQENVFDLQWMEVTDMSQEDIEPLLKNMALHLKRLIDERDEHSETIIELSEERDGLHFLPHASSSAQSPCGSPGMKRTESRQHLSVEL

[6] = biological target: F-actin (filamentous actin); assay: actin cosedimentation, 1 µM GST-CT2 with 0-2.5 µM F-actin, Scatchard analysis
[7] = biological target: the molecule itself; assay: expression in COS7 cells, coimmunoprecipitation (data not shown)

Molecule: recombinant active Akt (Upstate)
in vitro kinase assay (phosphorylation, autoradiography) [1]: neither the NT nor the coiled-coil domain of Girdin was phosphorylated by Akt in vitro | in vitro kinase assay (phosphorylation detected by anti-P-Girdin antibody) [2]: Purified GST-CT was effectively phosphorylated by Akt in vitro | in vitro kinase assay (phosphorylation, autoradiography) [3]: but not its Ser-1416 substituted with Ala mutant (SA), was phosphorylated by active Akt | in vitro kinase assay (phosphorylation, autoradiography) [4]: Girdin CT wild type (WT) ... was phosphorylated by active Akt | in vitro kinase assay (phosphorylation, autoradiography) [5]: neither the NT nor the coiled-coil domain of Girdin was phosphorylated by Akt in vitro

Kd [6]: 1030 nM
Molecule: glutathione S-transferase (GST)-fused CT2 of Girdin (GST-CT2) (from UniProt Q3V6T2 1624-1871)

B1: CT domain of Girdin (expressed in cells, oligomerisation test) (other)
chain: T2 sequence
binding result [7]: no binding
